These results are taken from publication PMC2588538, “Structure of Reovirus σ1 in Complex with Its Receptor Junctional Adhesion Molecule-A” (PLoS Pathogens, 2008).

B2: reovirus type 3 Dearing (T3D) σ1 fragment comprising the head domain and one β-spiral of the tail (σ1H; residues 293–455) (domain or fragment)
chain: GSSPNLRYPIADVSGGIGMSPNYRFRQSMWIGIVSYSGSGLNWRVQVNSDIFIVDDYIHICLPAFDGFSIADGGDLSLNFVTGLLPPLLTGDTEPAFHNDVVTYGAQTVAIGLSSGGAPQYMSKNLWVEQWQDGVLRLRVEGGGSITHSNSKWPAMTVSYPRSFT
notes: two non-native residues left at the N-terminus after removal of GST, numbered Gly291 and Ser292; reovirus attachment protein σ1, strain type 3 Dearing (T3D), residues 293-455 (head domain and one β-spiral of the tail); Trimer in the crystal; also called T3D σ1 head domain; not shown: GST, N-terminal, cleaved

One data set concerns the target CAR (Homo sapiens) (UniProt P78310). The conditions noted are these: cited from earlier work.
Data set [1] concerns the molecule itself. The data set can be described thus: AUC; sedimentation velocity, 50 krpm, 25°C, 20 mM Tris pH 7.5, 100 mM NaCl; five concentrations 0.06 to 1.31 mg/mL; interference optics.
The target in data set [2] is B2. Put plainly: crystal structure; σ1H-D1 complex, 3.4 Å, space group P2_(1)2_(1)2; crystals from 0.1 M CHES pH 9.5, polyethylene glycol 3350, 20°C; two σ1H trimers each with three D1 monomers in the asymmetric unit. The note with it: both partners purified.
Data set [3] deals with the molecule itself. Put plainly: AUC; sedimentation equilibrium, 17.5/25/35 krpm, 25°C, 20 mM Tris pH 7.5, 100 mM NaCl; four concentrations 0.16 to 1.6 mg/mL; monomer-dimer model with variable amounts of tetramer; dimer to monomers.
Data set [4] deals with the molecule itself. Put plainly: crystal structure; σ1H-D1 complex, 3.4 Å, space group P2_(1)2_(1)2; crystals from 0.1 M CHES pH 9.5, polyethylene glycol 3350, 20°C; two σ1H trimers each with three D1 monomers in the asymmetric unit.

For orientation: Kd means the free concentration of one partner at which half of the binding sites on the other are occupied at equilibrium, for simple one-to-one binding. Regarding CAR (from UniProt P78310), in the data set with CAR (Homo sapiens), the Kd was 16 µM.

B1: D1 domain of human junctional adhesion molecule-A (hJAM-A D1; residues 28–129) (domain or fragment)
chain: GSSVTVHSSEPEVRIPENNPVKLSCAYSGFSSPRVEWKFDQGDTTRLVCYNNKITASYEDRVTFLPTGITFKSVTREDTGTYTCMVSEEGGNSYGEVKVKLIVL
notes: two non-native residues left at the N-terminus after removal of GST, numbered Gly26 and Ser27; human junctional adhesion molecule-A, membrane-distal D1 domain, residues 28-129; Homodimer in solution at neutral pH; also called wt D1; source: E. coli BL21 (DE3) pLysS, purified (GSTrap, on-column thrombin cleavage, SEC); not shown: GST, N-terminal, cleaved
Usually stoichiometry N stands for a count of units in the complex or per binding partner. For the molecule B1, in data set [1], the “stoichiometry N” value amounted to 2. Moreover, in data set [2], the binding result was “binds”. Besides, in data set [3], the dissociation constant Kd was found to be 11 µM.

For B2, the “stoichiometry N” value in data set [4] came to 3.
